Assay results taken from the Immune Epitope Database (IEDB).

These sequences were tested against HLA-B*07:02 (assay: IEDB peptide-MHC binding, purified MHC/competitive/fluorescence; ≥ and ≤ were set here for values at or beyond the usual limits of such assays). Conditions: source organism: Homo sapiens.

Row | Sequence | IC50 [nM]
1 | AARPATSTL | 210
2 | APAYSRAL | 215
3 | APKRPPSAF | 176
4 | GPRTAALGLL | 258
5 | IATVDSYVI | ≥ 219000
6 | LPTSHPKIV | 3560
7 | NPNQNKNVAL | 1580
8 | RPYSNVSNL | 228
9 | SPNQARAQAAL | 926
10 | STTAICATGL | ≥ 248000
11 | TPQSNRPVM | 466
